# Measured values taken from patent US20100028952A1, “FERMENTATION AND PURIFICATION OF ACTINOMADURA CHROMOPROTEIN AND RELATED SPECIES” (WYETH, priority 2006, published 2010).
# B1: Actinomadura sp. 21G792 chromoprotein: non-covalent complex of an apoprotein and a chromophore comprising a nine-membered enediyne, produced by Actinomadura sp. 21G792 (NRRL 30778) (protein)
# chain: DTVTVNYDCVGYPSDIAVTIDAPATAGVGDTATFEVSSVVTTGAPQDLPAGEVVTDMAIVVGGAQSGTITASGLTNEATPAGQPVNMVGGEAQITFTSAGSVTFTPSTTTQVDNGAQCTVVGEAPVGATTVVS
# B2: apoprotein: 21G792 apoprotein (SEQ ID NO:150), protein component of the chromoprotein without chromophore (protein)
# chain: B1 chain
# modifications: Actinomadura sp. 21G792
# Experiments:
# histone H1 in HeLa cells = assay: Digestion of histone H1 in HeLa cells, immunoblot; format: cell-based; conditions: HeLa cells incubated overnight at 37° C.; anti-histone H1 immunoblot
# Protocol: To study whether the digestion of histones by the chromoprotein occurs in intact cells, HeLa cells were incubated with compounds overnight at 37° C. Cell lysates were analysed by SDS-PAGE and protein immunoblotting using anti-histone H1 antibodies (Santa Cruz Biotechnologies). […] This activity can contribute to antitumor effects by digesting histones in chromatin, making the DNA more accessible for cleavage. This appears to be a unique activity of the chromoprotein enediynes.
# Histone H1 = assay: Digestion of histone H1, SDS-PAGE; format: biochemical; conditions: for digestion of histone H1: 50 mM Tris-Cl, pH 7.5 overnight at 37° C.
# Protocol: Histone H1 was incubated with various concentrations of the chromoprotein in 50 mM Tris-Cl, pH 7.5 overnight at 37° C. (FIG. 29) Digestions of histone were assessed by SDS-polyacrylamide gel electrophoresis (SDS-PAGE), followed by staining of the gel with GelCode Blue (Pierce Biotechnology, Inc, Rockford, Ill.).
# Human PGP (MDR1) = target: T1, Human PGP (MDR1) (Homo sapiens, UniProt P08183); assay: Transport by P-GP (MDR-1); format: cell-based; conditions: result in words
# T1 construct: cells expressing clinically relevant levels of MDR1 (KB-8-5 cells) remain sensitive to the complex; endogenous in cells; host or cells: KB (P-GP -), KB-8-5 (+), KB-V-1 (+++)
# Description: Human PGP (MDR1) is an ATP-dependent efflux pump which is capable of transporting many drugs across cell membranes. High level expression of this protein has been linked to multiple drug resistance of tumors. […] The protein component of the chromoprotein probably protects the chromophore from drug efflux mediated by MDR1, and may be responsible for the beneficial antitumor effects in colon cell lines which often express MDR1.
# p21+/+ cells = assay: In vitro anti-tumor activity, isogenic pair of cell lines; format: cell-based; conditions: p21+/+ isogenic cell line; Mean + SD, n = 3
# Description: (§1) The p53/p21 checkpoint monitors the integrity of the genome and blocks cell cycle progression in the event of DNA damage. Disruption of the checkpoint by deletion of the p21 gene results in failure to arrest in response to DNA damage ultimately leading to cell death through apoptosis. Since loss of this checkpoint is a hallmark of cancer cells, an isogenic pair of cell lines, wherein one pair of the cell line (p21+/+) has an intact p21 gene and one member (p21−/−) has a deletion in the p21 gene, can be used to screen for potential anti-tumor compounds by identifying molecules that preferentially induce apoptosis in p21-deficient cells.
# (§2) The Actinomadura sp. 21G792 chromoprotein was added to an isogenic pair of cell lines (p21+/+ and p21−/−).
# p21−/− cells = assay: as above; format: cell-based; conditions: p21−/− isogenic cell line; Mean + SD, n = 3
# Description: as §1, §2
# LoVo = assay: Potency against human tumor cell lines; format: cell-based; conditions: Colon
# SW620 = assay: Potency against human tumor cell lines; format: cell-based; conditions: SW620, Colon
# BT474 = assay: Potency against human tumor cell lines; format: cell-based; conditions: BT474, Breast
# MCF-7 = assay: Potency against human tumor cell lines; format: cell-based; conditions: MCF-7, Breast
# MDA-MB-361 = assay: Potency against human tumor cell lines; format: cell-based; conditions: MDA-MB-361, Breast
# HN5 = assay: Potency against human tumor cell lines; format: cell-based; conditions: HN5, Head & Neck
# Supercoiled φX174 DNA = assay: DNA cleavage assay, gel electrophoresis; format: biochemical
# Protocol: Supercoiled φX174 DNA was incubated with various concentrations of the 21G792 chromoprotein and analyzed by gel electrophoresis. […] Nicked refers to single strand breaks in the DNA and linear refers to double strand breaks.
# [1] = tested on: histones H1, H2A, H2B, H3, and H4; assay: Specificity of protein digestion by the chromoprotein; format: biochemical; conditions: myelin basic protein, bovine serum albumin
# [2] = tested on: p53/p21 checkpoint in HCT116 (p21+/+ and p21−/−) cells; assay: Induction of the G1/S checkpoint, protein immunoblot; format: cell-based, human
# Description: HCT116 (p21+/+ and p21−/−) cells were exposed to the chromoprotein at various concentrations. […] Activation of the DNA damage checkpoint by the Actinomadura sp. […] 21G792 chromoprotein as shown by the cleavage of poly ADP ribose […] (PARP) (FIG. 23B). This is consistent with the lower IC50 value in the p21−/− cells.
# [3] = Toxicity of the chromoprotein in nude mice; format: in vivo; conditions: except for bone marrow suppression
# Protocol: 21G792 chromoprotein is well-tolerated in nude mice. Specifically, saline control vehicle or the chromoprotein in various doses was administered intravenously to six nude mice on days 1, 5, and 9.
# [4] = tested on: HCT116 colon carcinoma cells; assay: Uptake of FITC-tagged chromoprotein and apoprotein, fluorescent microscopy / flow cytometry; format: cell-based; conditions: for competition of label by unlabeled reagent: 10-fold excess of unlabeled reagent
# Protocol: To determine the mechanism by which the chromoprotein enters cells and exerts its biological activity, the chromoprotein was labeled with a fluorescent tag (FITC) using EZ-Label fluorescent labeling kit (Pierce Biotechnology), according to the manufacturer's recommendation. […] Uptake of labeled material by HCT116 colon carcinoma cells was studied by fluorescent microscopy. Optimum incubation time with cells was 3-6 hours. […] Even though nuclear accumulation is low, the amount is most likely sufficient for biological activity given the potency of the complex.
# To determine whether an intact complex of chromophore and apoprotein is required for cellular and nuclear entry, the chromoprotein and apoprotein were labeled with FITC. Uptake of labeled material was studied by fluorescent microscopy. Uptake was similar for both apoprotein and chromoprotein.
# To determine whether the entry of chromoprotein into cells is mediated by a saturable (e.g. cell surface receptor-dependent) process, HCT116 cells were incubated with FITC-labeled chromoprotein (FIG. 37, right panel) or apoprotein (FIG. 37, left panel) in the absence or presence of 10-fold excess of unlabeled reagent (unlabelled chromoprotein or apoprotein, respectively). Cells were analysed by fluorescent microscopy (left) or flow cytometry (right). […] Furthermore, a single homogeneous peak observed in flow cytometry histograms indicated uniform uptake of labeled reagent by all cells. Numbers in the histograms are mean channel numbers (FITC fluorescence).
# Other means by which a protein complex can enter cells is pinocytosis, where caveolae in the surface of the cell pinch off to form pinosomes that are free within the cytoplasm of the cell. Since pinocytosis is an energy-dependent process that requires a functional tubulin cytoskeletal network, we examined the effect of sodium azide, an energy uncoupling agent and nocodazole, an agent which disrupts the tubulin cytoskeleton on cellular uptake. HCT116 cells were treated with FITC-labeled apoprotein in the absence or presence of sodium azideor nocodazole. […] Since the data appears to rule out a receptor-mediated process, pinocytosis is most likely involved.
# [5] = tested on: E. coli BR513-80 SOS response; assay: Biochemical induction assay (BIA); format: cell-based; conditions: purified, approximately 90% pure
# Description: The biochemical induction assay identifies DNA damaging agents which induce the SOS response in E. coli BR513-80. BR513-80 contains a translational fusion of the λ PL promoter and the lacZ gene. The λ PL promoter, activated as part of the SOS response after exposure to DNA damaging agents, drives the synthesis of β-galactosidase. β-galactosidase activity is detected by the cleavage of the 6-bromo-2-naphthyl-β-D-galactopyranoside (BNG) which reacts with Fast Blue RR salt to produce a red/purple color. […]
# A BR513-80 overnight culture is diluted 1:20 in LBE broth or equivalent, and the absorbance of the diluted culture is measured at 600 nm. The absorbance of the undiluted culture is calculated, and 5.7 is divided by this value to obtain the volume (in mL) of culture to use as an inoculum per 40 mL soft agar. […] The calculated culture volume is swirled in soft agar, poured evenly over the base layer (40 ml per Nunc BioAssay plate, or 20 mL per 150 mm petri dish), and allowed to solidify for at least 10-15 minutes. […]
# A dye/substrate overlay is prepared by dissolving 87 mg Fast Blue RR salt and 13 mg BNG in 2 mL DMSO and mixing with 40 mL melted 1% soft agar. […] The induction response is scored after 15-20 minutes at room temperature or after 10 min. at about 37° C. […]
# [6] = tested on: human tumor cell line panel; assay: Human tumor cell line panel (whole panel); format: cell-based; conditions: result in words
# T1 sequence (P08183 whole entry): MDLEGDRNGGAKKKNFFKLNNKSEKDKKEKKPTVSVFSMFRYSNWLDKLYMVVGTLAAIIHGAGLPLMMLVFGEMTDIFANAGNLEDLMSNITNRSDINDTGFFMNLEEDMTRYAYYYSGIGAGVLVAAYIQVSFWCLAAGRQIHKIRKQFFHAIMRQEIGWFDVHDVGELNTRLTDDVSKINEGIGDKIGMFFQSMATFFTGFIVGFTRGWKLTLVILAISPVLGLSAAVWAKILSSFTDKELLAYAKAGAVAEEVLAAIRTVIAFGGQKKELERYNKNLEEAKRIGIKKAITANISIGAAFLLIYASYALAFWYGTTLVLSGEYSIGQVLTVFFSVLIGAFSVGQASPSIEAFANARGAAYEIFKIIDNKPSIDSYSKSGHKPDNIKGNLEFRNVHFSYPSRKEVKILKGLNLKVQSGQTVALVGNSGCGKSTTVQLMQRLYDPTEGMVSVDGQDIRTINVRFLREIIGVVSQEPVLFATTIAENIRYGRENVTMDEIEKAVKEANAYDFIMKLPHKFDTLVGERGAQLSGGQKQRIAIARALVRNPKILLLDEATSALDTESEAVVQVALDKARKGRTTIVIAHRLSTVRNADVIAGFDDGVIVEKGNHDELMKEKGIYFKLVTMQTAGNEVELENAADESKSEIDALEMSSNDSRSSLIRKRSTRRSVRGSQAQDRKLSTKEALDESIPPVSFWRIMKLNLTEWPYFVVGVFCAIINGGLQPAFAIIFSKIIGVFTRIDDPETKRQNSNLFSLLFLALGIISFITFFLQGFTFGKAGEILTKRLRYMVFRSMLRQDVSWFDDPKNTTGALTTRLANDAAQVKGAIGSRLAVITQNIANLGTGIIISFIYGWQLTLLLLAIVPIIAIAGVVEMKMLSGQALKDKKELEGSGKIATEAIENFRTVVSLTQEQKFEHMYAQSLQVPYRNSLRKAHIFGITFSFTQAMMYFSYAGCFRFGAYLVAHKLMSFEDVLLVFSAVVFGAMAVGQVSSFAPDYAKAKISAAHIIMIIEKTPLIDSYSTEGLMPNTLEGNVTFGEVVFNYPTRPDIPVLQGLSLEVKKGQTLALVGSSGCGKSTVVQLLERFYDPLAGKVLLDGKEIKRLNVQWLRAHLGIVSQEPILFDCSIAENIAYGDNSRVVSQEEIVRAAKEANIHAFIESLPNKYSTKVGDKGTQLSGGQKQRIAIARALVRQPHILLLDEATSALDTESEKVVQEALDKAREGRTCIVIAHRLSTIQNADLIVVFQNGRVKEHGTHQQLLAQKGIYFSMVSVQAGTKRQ
molecule,measurement,setting,value
bleomycin,histone H1 in cells,histone H1 in HeLa cells,No effect
calicheamicin [reference compound],digestion of histone H1,Histone H1,did not cleave histone H1
same,histone H1 in cells,histone H1 in HeLa cells,No effect
same,MDR1 substrate,Human PGP (MDR1),good substrate for MDR1
B1,IC50,p21+/+ cells,90 + 32 μg/ml
same,IC50,p21−/− cells,7 + 2 μg/ml
same,IC50,LoVo,2 µg/mL
same,IC50,SW620,2 µg/mL
same,IC50,BT474,47 µg/mL
same,IC50,MCF-7,2 µg/mL
same,IC50,MDA-MB-361,5 µg/mL
same,IC50,HN5,4 µg/mL
same,requirement of a reducing agent for DNA cleavage,"Supercoiled φX174 DNA; dithiothreitol, DTT",did not require a reducing agent
same,DNA cleavage,"Supercoiled φX174 DNA; various concentrations, reaction progressed over 24 hours",induced single strand breaks and double strand breaks
same,effect of free radical scavengers and protease inhibitors on digestion of histones,"Histone H1; 30 mM glutathione or N-acetyl cysteine, protease inhibitors","inhibited by the addition of free radical scavengers, 30 mM glutathione or N-acetyl cysteine (not shown), but not by protease inhibitors"
same,digestion of histone H1,Histone H1,digestion of Histone H1
same,effect of DNA on digestion of histone H1,Histone H1; addition of DNA,inhibited by addition of DNA
same,cleavage of other proteins,[1],"cleaves other basic proteins such as myelin basic protein, but not neutral/acidic proteins such as bovine serum albumin"
same,histone H1 in cells,histone H1 in HeLa cells,reduced histone H1 in cells
same,induction of the p21 protein,[2]; HCT116 p21+/+ and p21−/−,Induction of the p21 protein was seen in the p21+/+ cells only
same,induction of apoptosis (PARP cleavage),[2]; p21−/− compared with p21+/+ cells,induction of apoptosis was preferentially observed in p21−/− cells compared with p21+/+ cells
same,tolerability in nude mice,[3],well-tolerated
same,MDR1 substrate,Human PGP (MDR1),poor MDR1 substrate
same,competition of label by unlabeled reagent,[4],No competition of label was observed
same,biological activity upon FITC labeling,[4]; FITC labeled,No loss of biological activity
same,"uptake of labeled material, apoprotein versus chromoprotein",[4]; FITC labeled,similar
same,cellular localisation of label,"[4]; FITC labeled, fluorescent microscopy","Most of the label appeared in the cytoplasm, although weak staining was also observed in the nucleus"
same,BIA activity,[5],BIA active
B2,in vitro anti-tumor activity,[6],inactive
same,digestion of histone H1,Histone H1,no activity
same,competition of label by unlabeled reagent,[4],No competition of label was observed
same,"uptake of labeled material, apoprotein versus chromoprotein",[4]; FITC labeled,similar
same,effect of sodium azide or nocodazole on uptake of label,"[4]; FITC-labeled, nocodazole 100 nM",Both treatments inhibited uptake of label
